test system: c-Src; experiment: phosphorylation enrichment, bacterial display (enrichment ratio); higher = better substrate or ligand; peptides without Tyr show the background
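Throughout, for SH2 binding enrichment of the phosphorylated peptide, bacterial display: peptide library displayed on the E. coli surface as eCPX fusions, selected cells deep-sequenced, score is each peptide's frequency after selection divided by its frequency in the input.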
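Throughout, for phosphorylation enrichment, bacterial display: 11-residue human phosphosite peptides and single-mutation variants displayed on the E. coli surface, counted by deep sequencing, each peptide's frequency after selection divided by its frequency in the unselected input library; frequency after pTyr selection over input frequency; kinase dosed for 20-30% of maximal phosphorylation in three min.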

Sequence | phosphorylation enrichment
IENKLYGMSDS [RET_Y1062_P1067S] | 0.614
GVRLYYRVRES [RB1_Y454_M457R] | 0.285
KGERGYPGTPG [COL4A1_Y348] | 0.419
ANKNVYEVEPT [MEGF10_Y1075_R1072K] | 2.9
QQTFTYDSGIH [JUP_Y22_YF] | 0.95
ALKKPYGVLYK [RPF2_Y59] | 0.707
SAEEDYIADAK [KCNT1_Y876_M877I] | 0.608
SECCKYKIDNP [OSMR_Y689] | 0.46
FLAVGYHKLHI [IDS_Y225_P228L] | 0.462
TNYRLYLRSLE [MTM1_Y71] | 0.504
YQGGTYSKACT [FGG_Y380_S384C] | 0.436
LSDGPYSNPFE [EPOR_Y485_YF] | 0.856
DRFANYIEKVR [DES_Y122] | 0.425
PGIRMYRVQFN [LRFN1_Y454_Q455R_YF] | 0.607
WKEIEYEVVRD [CPS1_Y634] | 0.473
GHLFANDWISI [BEST1_Y227_Y227N_YF] | 0.469
KHGGNYVPAPE [OSCP1_Y237_K242E] | 0.405
GMAHNYRNRSQ [AASS_Y188_S191R] | 0.481
LAAPKYKLNVD [SMARCA2_Y1190_A1188P] | 0.44
PQAVRYIYTID [DCX_Y103_G100A] | 6.46
VSGIPYSQPKQ [NEU1_Y251_G252S] | 0.388
DAHFTYSRFPW [LY75_Y888_D884A_YF] | 5.62
NDHHVYLEGTL [ALDOB_Y223] | 0.421
HSRTRYERNIE [F2_Y434] | 0.683
QNTGDYCDLYG [PTPN11_Y62_Y63C] | 1.84
LVRPPYSFSAL [FOXI1_Y126_YF] | 0.409
LDCNEYFRDLN [HPRT1_Y198_Y195C] | 0.487
RLQEGYDHSYY [ESD_Y258] | 1.06
ATYRGYDSDNP [MMUT_Y146_H143Y] | 0.626

target: Grb2 SH2 (UniProt P62993); experiment: SH2 binding enrichment of the phosphorylated peptide, bacterial display (enrichment ratio); higher = better substrate or ligand; peptides without Tyr show the background
Sequence (P62993 whole entry, looked up): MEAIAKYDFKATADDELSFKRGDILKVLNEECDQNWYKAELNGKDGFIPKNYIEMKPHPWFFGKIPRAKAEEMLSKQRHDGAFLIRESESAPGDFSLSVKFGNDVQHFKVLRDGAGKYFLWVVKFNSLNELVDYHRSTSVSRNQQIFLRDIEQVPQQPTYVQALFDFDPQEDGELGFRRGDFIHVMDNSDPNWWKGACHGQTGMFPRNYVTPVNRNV

Sequence | SH2 binding enrichment
IENKLYGMSDS [RET_Y1062_P1067S] | 0.706
GVRLYYRVRES [RB1_Y454_M457R] | 0.769
KGERGYPGTPG [COL4A1_Y348] | 0.832
ANKNVYEVEPT [MEGF10_Y1075_R1072K] | 0.821
QQTFTYDSGIH [JUP_Y22_YF] | 0.673
ALKKPYGVLYK [RPF2_Y59] | 1.54
SAEEDYIADAK [KCNT1_Y876_M877I] | 0.983
SECCKYKIDNP [OSMR_Y689] | 0.94
FLAVGYHKLHI [IDS_Y225_P228L] | 1.36
TNYRLYLRSLE [MTM1_Y71] | 0.9
YQGGTYSKACT [FGG_Y380_S384C] | 0.997
LSDGPYSNPFE [EPOR_Y485_YF] | 0.82
DRFANYIEKVR [DES_Y122] | 0.769
PGIRMYRVQFN [LRFN1_Y454_Q455R_YF] | 0.796
WKEIEYEVVRD [CPS1_Y634] | 0.697
GHLFANDWISI [BEST1_Y227_Y227N_YF] | 0.904
KHGGNYVPAPE [OSCP1_Y237_K242E] | 0.619
GMAHNYRNRSQ [AASS_Y188_S191R] | 0.703
LAAPKYKLNVD [SMARCA2_Y1190_A1188P] | 0.713
PQAVRYIYTID [DCX_Y103_G100A] | 0.882
VSGIPYSQPKQ [NEU1_Y251_G252S] | 0.751
DAHFTYSRFPW [LY75_Y888_D884A_YF] | 1.06
NDHHVYLEGTL [ALDOB_Y223] | 0.995
HSRTRYERNIE [F2_Y434] | 1.31
QNTGDYCDLYG [PTPN11_Y62_Y63C] | 1.11
LVRPPYSFSAL [FOXI1_Y126_YF] | 0.809
LDCNEYFRDLN [HPRT1_Y198_Y195C] | 1.07
RLQEGYDHSYY [ESD_Y258] | 0.939
ATYRGYDSDNP [MMUT_Y146_H143Y] | 0.862

target: SHP2-C SH2; experiment: as above

Sequence | SH2 binding enrichment
IENKLYGMSDS [RET_Y1062_P1067S] | 0.663
GVRLYYRVRES [RB1_Y454_M457R] | 0.872
KGERGYPGTPG [COL4A1_Y348] | 0.77
ANKNVYEVEPT [MEGF10_Y1075_R1072K] | 0.941
QQTFTYDSGIH [JUP_Y22_YF] | 0.809
ALKKPYGVLYK [RPF2_Y59] | 2.38
SAEEDYIADAK [KCNT1_Y876_M877I] | 0.709
SECCKYKIDNP [OSMR_Y689] | 0.393
FLAVGYHKLHI [IDS_Y225_P228L] | 1.42
TNYRLYLRSLE [MTM1_Y71] | 1.09
YQGGTYSKACT [FGG_Y380_S384C] | 1.03
LSDGPYSNPFE [EPOR_Y485_YF] | 0.486
DRFANYIEKVR [DES_Y122] | 0.743
PGIRMYRVQFN [LRFN1_Y454_Q455R_YF] | 0.606
WKEIEYEVVRD [CPS1_Y634] | 0.65
GHLFANDWISI [BEST1_Y227_Y227N_YF] | 0.708
KHGGNYVPAPE [OSCP1_Y237_K242E] | 0.614
GMAHNYRNRSQ [AASS_Y188_S191R] | 0.392
LAAPKYKLNVD [SMARCA2_Y1190_A1188P] | 0.592
PQAVRYIYTID [DCX_Y103_G100A] | 17.1
VSGIPYSQPKQ [NEU1_Y251_G252S] | 0.646
DAHFTYSRFPW [LY75_Y888_D884A_YF] | 0.942
NDHHVYLEGTL [ALDOB_Y223] | 0.646
HSRTRYERNIE [F2_Y434] | 1.37
QNTGDYCDLYG [PTPN11_Y62_Y63C] | 1.13
LVRPPYSFSAL [FOXI1_Y126_YF] | 0.562
LDCNEYFRDLN [HPRT1_Y198_Y195C] | 0.927
RLQEGYDHSYY [ESD_Y258] | 1.05
ATYRGYDSDNP [MMUT_Y146_H143Y] | 0.562

target: c-Src SH2; experiment: as above

Sequence | SH2 binding enrichment
IENKLYGMSDS [RET_Y1062_P1067S] | 0.451
GVRLYYRVRES [RB1_Y454_M457R] | 0.393
KGERGYPGTPG [COL4A1_Y348] | 0.482
ANKNVYEVEPT [MEGF10_Y1075_R1072K] | 1.59
QQTFTYDSGIH [JUP_Y22_YF] | 0.563
ALKKPYGVLYK [RPF2_Y59] | 1.38
SAEEDYIADAK [KCNT1_Y876_M877I] | 0.683
SECCKYKIDNP [OSMR_Y689] | 0.472
FLAVGYHKLHI [IDS_Y225_P228L] | 1.25
TNYRLYLRSLE [MTM1_Y71] | 0.591
YQGGTYSKACT [FGG_Y380_S384C] | 0.869
LSDGPYSNPFE [EPOR_Y485_YF] | 1.91
DRFANYIEKVR [DES_Y122] | 0.473
PGIRMYRVQFN [LRFN1_Y454_Q455R_YF] | 0.469
WKEIEYEVVRD [CPS1_Y634] | 0.524
GHLFANDWISI [BEST1_Y227_Y227N_YF] | 0.493
KHGGNYVPAPE [OSCP1_Y237_K242E] | 0.456
GMAHNYRNRSQ [AASS_Y188_S191R] | 0.48
LAAPKYKLNVD [SMARCA2_Y1190_A1188P] | 0.325
PQAVRYIYTID [DCX_Y103_G100A] | 0.644
VSGIPYSQPKQ [NEU1_Y251_G252S] | 0.617
DAHFTYSRFPW [LY75_Y888_D884A_YF] | 0.719
NDHHVYLEGTL [ALDOB_Y223] | 1.72
HSRTRYERNIE [F2_Y434] | 0.752
QNTGDYCDLYG [PTPN11_Y62_Y63C] | 1.22
LVRPPYSFSAL [FOXI1_Y126_YF] | 0.478
LDCNEYFRDLN [HPRT1_Y198_Y195C] | 0.704
RLQEGYDHSYY [ESD_Y258] | 1.4
ATYRGYDSDNP [MMUT_Y146_H143Y] | 0.526

— the supplement of paper PMC10065799, “High-throughput profiling of sequence recognition by tyrosine kinases and SH2 domains using bacterial peptide display” (eLife, 2023)
